Experimental data as given in paper PMC2879517 (Nucleic Acids Research, 2010).

B1: DdrB from D. geothermalis labeled with SeMet (natural protein)
chain: MLHIEFITDLGAKVTVDVESADKLLDVQRQYGRLGWTSGEVPVGGYQFPLENEPDFDWSLIGARKWTNPEGEEMILHRGHAYRRRELEAVDSRKMKLPAAVKYSRGAKNTDPEHVREKADGEFEYVTLAIFRGGKRQERYAVPGSNRPQAGAPARSAATRAQGARPGAVAVQDEETPF
modifications: selenomethionine (SeMet) in place of methionine
B2: DdrB (DNA damage response B) from D. geothermalis, native, untagged (natural protein)
chain: B1 chain

Legend:
crystal structure = biological target: the molecule itself; test: crystal structure
SEC = biological target: the molecule itself; test: SEC

Protein | stoichiometry N (crystal structure) | stoichiometry N (SEC)
B1 | 5 | –
B2 | – | 5
